Laboratory results published in patent US20210024640A1.

What was measured:
[1] = target: OX40 on HT1080 OX40 stable cell line (Homo sapiens (Human)) (UniProt P43489)
[2] = target: OX40 on HT1080 OX40 stable cell line (Homo sapiens (Human)) (UniProt P43489); remark: listed apart in the source

Chain of OX40 on HT1080 OX40 stable cell line (Homo sapiens (Human)) (P43489 29-277): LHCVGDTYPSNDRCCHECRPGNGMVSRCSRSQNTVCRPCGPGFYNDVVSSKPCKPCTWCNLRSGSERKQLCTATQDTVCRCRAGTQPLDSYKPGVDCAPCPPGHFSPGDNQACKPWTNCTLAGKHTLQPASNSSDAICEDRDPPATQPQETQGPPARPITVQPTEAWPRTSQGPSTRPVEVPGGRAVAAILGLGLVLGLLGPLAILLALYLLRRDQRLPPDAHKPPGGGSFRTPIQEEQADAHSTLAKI

EC50 (read off the curve), IL-8 secretion, agonist assay control [1]: 0.3 nM | EC50 (read off the curve), IL-8 secretion, antagonist assay control (ligand titration) [2]: 0.3 nM
Substance: OX40L-Fc (Fc fusion)
